# Where “and” joins values, the source holds several entries; their conditions need not be identical. Identical values can stand only once.
# T1: pep05 (cysteine pairing not given here)
# T1 peptide: KGNYVVTDHGSCVRACK(Biotin)
# T2: pep14 (cysteine pairing not given here)
# T2 peptide: GSCVRACGADSYEMEEK(Biotin)
# T3: pep15 (cysteine pairing not given here)
# T3 peptide: SCVRACGADSYEMEEDK(Biotin)
# T4: pep19
# T4 sequence (peptide, C-terminal K(Biotin)): ACGADSYEMEEDGVRKK
# Columns and labels:
# [1] = target: human EGFRvIII protein, full length, on transfected cells (human) (UniProt P00533); assay: FACS, 293F-hEGFRvIII 1F3 cells
# [2] = target: human EGFRvIII protein, full length, on transfected cells (human) (UniProt P00533); assay: FACS, 293F-hEGFRvIII 1C10 cells
# [3] = target: human EGFRvIII protein, full length, on transfected cells (human) (UniProt P00533); assay: FACS, 293F-hEGFRvIII 1D11 cells
# [4] = target: human EGFRvIII protein, full length, on transfected cells (human) (UniProt P00533); assay: FACS, U87MG-hEGFRvIII 1B3 cells
# [5] = target: human EGFRvIII protein, full length, on transfected cells (human) (UniProt P00533); assay: FACS, U87MG-hEGFRvIII 1D1 cells
# [6] = target: human EGFRvIII protein, full length, on transfected cells (human) (UniProt P00533); assay: FACS, U87MG-hEGFRvIII 1F9 cells
# [7] = target: human EGFRvIII protein, full length, on transfected cells (human) (UniProt P00533); assay: FACS, U87MG-hEGFRvIII 2C6 cells
# [8] = target: human EGFRvIII protein, full length, on transfected cells (human) (UniProt P00533); assay: FACS, U87MG-hEGFRvIII 2G2 cells
# [9] = target: human EGFRvIII protein, full length, on transfected cells (human) (UniProt P00533); assay: FACS, CHO-K1-hEGFRvIII 1E3 cells
# [10] = target: human EGFRvIII protein, full length, on transfected cells (human) (UniProt P00533); assay: FACS, CHO-K1-hEGFRvIII 1G10 cells
# [11] = target: human EGFRvIII protein, full length, on transfected cells (human) (UniProt P00533); assay: FACS, CHO-K1-hEGFRvIII 2D11 cells
# [12] = target: human wild-type EGFR protein on the cell surface (human) (UniProt P00533); assay: FACS on A431 tumor cells
# [13] = target: human EGFRvIII-hFc protein (human) (UniProt P00533); assay: ELISA, EGFRvIII-hFc coated
# [14] = target: human EGFRvIII protein on the cell surface (human) (UniProt P00533); assay: FACS on U87MG-EGFRvIII cells
# [15] = target: human wild-type EGFR protein on the cell surface (human) (UniProt P00533); assay: FACS on normal human primary hepatocytes
# [16] = target: human wild-type EGFR protein on the cell surface (human) (UniProt P00533); assay: FACS, MFI on A431 cells over MFI on normal primary hepatocytes
# [17] = target: EGFR-his (purchased from Sino Biological) (UniProt P00533); assay: BLI (OctetRED), antibody on anti-human Fc (AHC) biosensor, EGFR-his in solution
# [18] = target: EGFRvIII-his (purchased from Sino Biological) (UniProt P00533); assay: BLI (OctetRED), antibody on anti-human Fc (AHC) biosensor, EGFRvIII-his in solution
# [19] = target: T1, pep05; assay: peptide dot matrix ELISA
# [20] = target: T2, pep14; assay: peptide dot matrix ELISA
# [21] = target: T3, pep15; assay: peptide dot matrix ELISA
# [22] = target: T4, pep19; assay: peptide dot matrix ELISA
# [23] = target: T5, human EGFRvIII-hFc protein (human, UniProt P00533 25-645); assay: ELISA, EGFRvIII-hFc coated
# T5 construct: extracellular domain; also called immunogen A; hFc-tagged EGFRvIII protein; not shown: human IgG Fc fragment (hFc) of the pCpC vector
# Protocol: The purified immunogen A (EGFRvIII-hFc) obtained in example 1 (for the preparation method, see step (I) in example 1) is diluted with PBS to a final concentration of 1.0 μg/mL, and then added to a 96-well ELISA plate at 100 μl/well. The plate is sealed with a plastic film and incubated at 4° C. overnight. The next day, the plate is washed twice with a plate washing solution [PBS+0.01% (v/v) Tween20], and added with a blocking solution [PBS+0.01% (v/v) Tween20+1% (w/w) BSA] for blocking 2 hours at room temperature. […] The plate is incubated for 2 hours at 37° C., and then washed 3 times with the plate washing solution [PBS+0.01% (v/v) Tween20]. The plate is added with an HRP (horseradish peroxidase) labeled secondary antibody (purchased from Sigma), incubated at 37° C. for 2 hours, and then washed 3 times with the plate washing solution [PBS+0.01% (v/v) Tween20]. The plate is added with 100 μl of TMB substrate/well, incubated for 30 minutes at room temperature, and then added with 100 μl of stopping solution (1.0N HCl)/well. A450 nm value is read using an ELISA plate reader (SpectraMax 384plus, purchased from Molecular Device), and the results are shown in FIG. 11 and table 19.
# [24] = target: T5, human EGFRvIII-hFc protein; assay: ELISA, EGFRvIII-hFc coated; remark: listed apart in the source
# [25] = target: T6, human EGFRvIII protein on the cell surface (human, UniProt P00533 25-1210); assay: FACS on U87MG-EGFRvIII cells
# T6 construct: whole, on cells; the cell line is named under assay; also called hEGFRvIII; U87MG-hEGFRvIII
# Method in brief: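 U87MG-EGFRvIII, A431 and primary human hepatocytes (2×10⁶ cells/mL, goat-serum blocked) were incubated with antibody on ice for 2 h, then with an Alexa 488 secondary (1:1000) for 1 h and fixed in 4% paraformaldehyde. Mean fluorescence intensity was read by flow cytometry, and EC50 was derived by curve fitting.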
# [26] = target: T6, human EGFRvIII protein on the cell …; assay: FACS on U87MG-hEGFRvIII cells
# [27] = target: T7, human wild-type EGFR protein on the cell surface (human, UniProt P00533 25-1210); assay: FACS on A431 cells; A431 cells (large amount of wild-type EGFR on the surface)
# T7 construct: whole, on cells; Endogenous on A431, HEB, U87MG cells and normal human primary hepatocytes; transfected on CHOk1-EGFR cells; The cell is named under assay; also called A431; HEB
# Protocol: The cells are washed twice with the HBSS buffer and are counted, and then the cells are diluted with the HBSS buffer to 2×10⁶ cells/ml, added with 1% goat serum blocking solution, with the percentage being the mass percentage, and incubated on ice for 30 minutes, and then centrifugally washed twice with the HBSS buffer. The collected cells are suspended to 2×10⁶ cells/mL with an FACS buffer (HBSS+1% BSA, with the percentage being the mass percentage), added to a 96-well FACS reaction plate at 100 μL/well, then added with 100 μL/well of the purified EGFRvIII antibody (samples to be tested) obtained in example 2, and incubated on ice for 2 hours. The plate is centrifugally washed twice with the FACS buffer, added with 100 μL/well of a fluorescence (Alexa 488) labeled secondary antibody (purchased from Invitrogen), and then incubated on ice for 1 hour. The plate is centrifugally washed 3 times with the FACS buffer, added with 100 μL/well of a fixing solution [4% (v/v) paraformaldehyde] for suspending the cells, and centrifugally washed twice with the FACS buffer after 10 minutes. The cells are suspended in 100 μL of the FACS buffer, and the results are detected and analyzed by FACS (FACS Calibur, purchased from BD). Data analysis is performed by using the software (CellQuest) to obtain the mean fluorescence intensity (MFI) of the cells. Data is further analyzed by using the software (GraphPad Prism5) to perform data fitting and calculate EC50. […] A431 cells (human epidermal cell cancer cell lines) have a large amount of wild-type EGFR protein expressed on the surface thereof. […] U87MG cells (human glioma cell lines) have a small amount of wild-type EGFR protein expressed on the surface thereof, while HEB cells (human glioma cell lines) have a high level of wild-type EGFR protein expression on the surface thereof.
molecule,measurement,setting,value
IgG subtype control (antibody),cell mean fluorescence intensity,[1],4.1
same,cell mean fluorescence intensity,[2],4.3
same,cell mean fluorescence intensity,[3],3.6
same,cell mean fluorescence intensity,[4],2.3
same,cell mean fluorescence intensity,[5],3
same,cell mean fluorescence intensity,[6],1.7
same,cell mean fluorescence intensity,[7],1.8
same,cell mean fluorescence intensity,[8],1.8
same,cell mean fluorescence intensity,[9],2.4
same,cell mean fluorescence intensity,[10],2.4
same,cell mean fluorescence intensity,[11],1.8
"Humanized antibody h75G7C6-1 (antibody, human IgG1, V domains shown) VH: EVQLVQSGAEVKKPGASVKVSCKASGYTFTDYNMDWVKQAPGQGLEWIGDINPNNADTIYNQKFKGRVTLTVDKSTSTVYMELSSLRSEDTAVYYCARGDYDGYYPVYYAMDYWGQGTTVTVSS VL: EIVLTQSPATLSLSPGERATLSCRASSSVSSSYLHWYQQKPGQAPRLLIYSTSNLAAGIPARFSGSGSGTDFTLTISSLEPEDFAVYYCQQYSGYPLTFGGGTKVEIK",MFI,[12],9780 MFI
same,EC50,[13],0.49 nM
same,Maximum OD450 value,[13],3.41 OD450
same,EC50,[14],4.93 nM
same,Maximum mean fluorescence intensity,[14],18300 MFI
same,MFI,[15],277 MFI
same,Selective window (MFI A431/Hepatocytes),[16],35.5 fold
same,Kd,[17],205 nM
same,koff,[17],0.00353 s⁻¹
same,kon,[17],17200 M⁻¹ s⁻¹
same,Kd,[18],1.71 nM
same,koff,[18],0.000141 s⁻¹
same,kon,[18],82800 M⁻¹ s⁻¹
"Humanized antibody h75G7C6-2 (antibody, human IgG1, V domains shown) VH: EVQLVQSGAEVKKPGASVKVSCKASGYTFTDYNMDWVKQAPGQGLEWIGDINPNNADTIYNQKFKGRVTLTVDKSTSTVYMELSSLRSEDTAVYYCARGDYDGYYPVYYAMDYWGQGTTVTVSS VL: ENVLTQSPATLSLSPGERATLSCRASSSVSSSYLHWYQQKPGQAPRLLIFSTSNLAAGIPARFSGSGSGTDYTLTISSLEPEDFAVYYCQQYSGYPLTFGGGTKVEIK",MFI,[12],11800 MFI
same,EC50,[13],0.38 nM
same,Maximum OD450 value,[13],3.38 OD450
same,EC50,[14],5.67 nM
same,Maximum mean fluorescence intensity,[14],18300 MFI
same,MFI,[15],250 MFI
same,Selective window (MFI A431/Hepatocytes),[16],47 fold
same,Kd,[17],200 nM
same,koff,[17],0.00405 s⁻¹
same,kon,[17],20300 M⁻¹ s⁻¹
same,Kd,[18],1.54 nM
same,koff,[18],0.00014 s⁻¹
same,kon,[18],90600 M⁻¹ s⁻¹
"Chimeric antibody 63A10 (antibody, V domains shown) VH: QVQLQQSGAELARPGASVKMSCKASGYTFISFTMHWVKQRPGQGLEWIGYINPNSGYTKYNQKFKDKATLTAGQSSSTAYMQLSSLTSEDSAVYYCTRGGGRGFAYWGQGTLVTVSA VL: DILMTQSPSSMSVSLGDTVTITCHASQDINSNIGWLQQKPGKSFKALIYHGTNLEDGVPSRFSGSGSGADYSLTISSLESEDFADYYCVQYAQFPFTFGSGTKLEIK",ELISA signal,[19],0.15 and 0.17
same,ELISA signal,[20],0.08 and 0.23
same,ELISA signal,[21],0.14 and 0.11
same,ELISA signal,[22],0.11 and 0.15
"Chimeric antibody 63A10 (antibody, human IgG1, V domains shown, also called c63A10A7; chimeric antibody c63A10A7) VH: QVQLQQSGAELARPGASVKMSCKASGYTFISFTMHWVKQRPGQGLEWIGYINPNSGYTKYNQKFKDKATLTAGQSSSTAYMQLSSLTSEDSAVYYCTRGGGRGFAYWGQGTLVTVSA VL: DILMTQSPSSMSVSLGDTVTITCHASQDINSNIGWLQQKPGKSFKALIYHGTNLEDGVPSRFSGSGSGADYSLTISSLESEDFADYYCVQYAQFPFTFGSGTKLEIK",OD450 nm at 0.0001 nM antibody,[23],0.07 OD450
same,OD450 nm at 0.001 nM antibody,[23],0.11 OD450
same,OD450 nm at 0.01 nM antibody,[23],0.37 OD450
same,OD450 nm at 0.1 nM antibody,[23],1.05 OD450
same,OD450 nm at 1 nM antibody,[23],3.33 OD450
same,OD450 nm at 10 nM antibody,[23],3.55 OD450
same,OD450 nm at 100 nM antibody,[23],3.55 OD450
same,EC50,[24],0.22 nM
same,Maximum OD450 value,[24],3.6 OD450
same,EC50,[25],3.8 nM
same,Maximum mean fluorescence intensity,[25],11600 MFI
same,EC50,[26],2.2 nM
same,EC50,[27],696 nM

# From patent US20210032351A1 (XDCEXPLORER SHANGHAI, published 2021)
